Measurements taken from CN111434681A.
Where “and” joins values, the source holds several entries; their conditions need not be identical. Equal values may be shown once.

Columns and labels:
[1] = biological target: H7N9病毒的HA蛋白(购自ACROBiosystems) (H7N9 influenza virus)
[2] = biological target: H7N9病毒的HA蛋白(购自ACROBiosystems) (H7N9 influenza virus); remark: listed apart in the source
[3] = biological target: H7N9病毒 A/Anhui/1/2013 (血凝素HA on virus) (influenza A virus A/Anhui/1/2013 (H7N9)); assay: cell-based or functional assay

B1: 抗H7N9全人源单克隆抗体6J15 (antibody, V domains shown)
VH: QVQLVESGAEVKKPGASVKVSCKASGYNIFTSYDINWVRQATGQGLEWMGWMNPDSGDTGFAQKFQGRVTMTRNTSITTAYMELSSLTSEDTAVYYCATGNADCSGSCYNWFDPWGQGTLVTVSS
VL: SSELTQDPAVSVALGQTVRITCQGDRLRSTYYASWYQQKPGQAPVLVIYGKNNRPSGIPDRFSGSSSGNTASLTITGAQAEDEADYYCNSRDTSGYHLVFGGGTKLTVLV
- 450nm (OD) [1]: 2.25 OD 450nm and 1.85 OD 450nm and 1.78 OD 450nm
- Kd [2]: 2.06 nM
- 微量中和-ELISA实验 (MDCK cells, 100TCID50 virus), IC50 [3]: 0.35 µg/mL
